experiment: soluble on expression in E. coli; label from the status in PepcDB or PDB records

Row | Sequence | soluble on expression in E. coli
1 | MFLKILPRIRRPTRSYAAVLAARHEGFAKVMQSDLMAFENFLGQDAVKKDDITNHTTDWTGQFKGPGSVVLYPKSTEEVSAILAYCSKNKLAVVPQGGNTGLVGGSIPVHDEVVISMNKINKQFSFDDTMGILKCDSGFILEDLDNKLAKLGYMMPFDLGAKGSCQIGGNIATCAGGIRLIRYGSLHAHLLGLTVVLPDEHGTVLHLGSSIRKDNTTLHTPHLFLGSEGQLGVITSVTMTAVPKPKSVQSAMLGIESFKKCCEVLKLAKSSLTEILSSFELLDDATMECLKTNLGLHPVLNAPTPFSILVETSGSNEDHDMEKMSAFLDECLSKNLIIDGVLAGSSAEATKMWQLRESAPLAVTRDGYVYKHDVSLPLENYYELTNVMKERCGSLAKRIVTYGHLGDGNTHLNITSEKHNEELEKLLYPFLYEWVVDHGGSISAEHGIGQLKLPYSTFGKDPEERLLTKKLKNIFDPNGILNPYKTI | not soluble
2 | MFLVTGATGDIGRRVIRLLREHNHSVRGFARLTSRYGELEHRGANIFIGDLRREQDIEKACQGVQYIISAHGSDNDALTLDYRANIALIDQAKANGVQHFVFISVLGAERGYEDAPVFKAKRAVENYLAASGLNYTILRPAGLASNLLPLAERFRETGLYLLIGDPKNRTSIVSTDDLARIVVDSVTVPEARNQIFSVGGPEILLREDIPQIFSHIFKKEPIVVNSPLLVIDGLRGVLGLINPEAQQALGTFRTLLSNEFFCRKDEIAKLEQTFNFPLETLESFLRRYLAVLEHHHHHH | not soluble
3 | MFMGKLPHQADLIGALIEAAGANGIRAGAIQVIGALQGAKLGFYDQWSKSYRELPFAKPLEIVSGLGNISLRDGRPFVHLHLSISDEEGKVFGGHALEGCTIFAAEYAIMPLPGSAPVRVFDETTGLFLWEREQYPASGQKGLSPELERALLNPLEHHHHHH | soluble
4 | MFPILETDRLILRQITDQDAEAIFACFSNDEVTRYYGLENMESIEQAISMIQTFAALYQEKRGIRWGIERRDTKELIGTIGFHALAQKHRRAEIGYEIIPEHWRNGFASEVISKVVSYGFSALGLSRIGAVVFTDNEASNRLLLKMGFQKEGVLRQYMYSKWDSI | not soluble
5 | MFQIYEIFSSVFNFDPKMPENVGVKEDDDKVFAKEIAQLEEEFEANTLKAESLEKEIAYSKVQIETENVKFAAIEQEKAIEIIKLEKQIKIMEAKLDFMKQDPIEIEEIEKLKHRVEEETQRNTEYAESLKYIKEMIRIKKAEKNEKKQKNAIDN | not soluble
6 | MFRHVAQNLGSRNTSIQSYRLLRTRWERGYLKDLYHRRQILGADPAISRSSYPNCSVQVRNHHCSADKSTLQWAPIKTSIDNSSDDFAANTAEMKVLVEDLKAKISKIEQAGGEKAVKLHRSRGKMLARERIDGIVDAGSPFIEFSQLAGYEMYGKEEVPSGGILTGVGIVSGRVCVIVANDATVKGGTYYPITVKKHLRAQEIARENKLPCIYLVDSGGANLPRQADIFADSQHFGRIFYNQATMSSEGIPQLAVVMGSCTAGGAYVPAMSDQAIIVKGTGTVFLGGPPLVKAATGEEISAEELGGADLHCGESGVTDYYAHNDKHALYLARSCIAGLPPVEEHMTFNPNADEPLYPAEEIYGIVGSNLKKTYDVREVIARIVDGSRFHEFKERYGETLVTGFATIYGQRVGILANNGVLFAESAMKGSHFIELCCQRKIPLLFLQNITGFMVGRDAEAGGIAKHGAKLVTAVACAKVPKITVLVGGSYGAGNYGMCGRGYSPRYVFMWPNSRISVMGGEQAANVLSTVQKEKKKREGADWTDQQDLELRKPVEEKFEKEGHPYFASARLWDDGVIDPKDTRKVLGLAFQSTLQKPIPETKFGVFRM | not soluble
7 | MFRKLGSSGSLWKPKNPHSLEYLKYLQGVLTKNEKVTENNKKILVEALRAIAEILIWGDQNDASVFDFFLERQMLLYFLKIMEQGNTPLNVQLLQTLNILFENIRHETSLYFLLSNNHVNSIISHKFDLQNDEIMAYYISFLKTLSFKLNPATIHFFFNETTEEFPLLVEVLKLYNWNESMVRIAVRNILLNIVRVQDDSMIIFAIKHTKEYLSELIDSLVGLSLEMDTFVRSAENVLANRERLRGKVDDLIDLIHYIGELLDVEAVAESLSILVTTRYLSPLLLSSISPRRDNHSLLLTPISALFFFSEFLLIVRHHETIYTFLSSFLFDTQNTLTTHWIRHNEKYCLEPITLSSPTGEYVNEDHVFFDFLLEAFDSSQADDSKAFYGLMLIYSMFQNNADVGELLSAANFPVLKESTTTSLAQQNLARLRIASTSSISKRTRAITEIGVEATEEDEIFHDVPEEQTLEDLVDDVLVDTENSAISDPEPKNVESESRSRFQSAVDELPPPSTSGCDGRLFDALSSIIKAVGTDDNRIRPITLELACLVIRQILMTVDDEKVHTSLTKLCFEVRLKLLSSIGQYVNGENLFLEWFEDEYAEFEVNHVNFDIIGHEMLLPPAATPLSNLLLHKRLPSGFEERIRTQIVFYLHIRKLERDLTGEGDTELPVRVLNSDQEPVAIGDCINLHNSDLLSCTVVPQQLCSLGKPGDRLARFLVTDRLQLILVEPDSRKAGWAIVRFVGLLQDTTINGDSTDSKVLHVVVEGQPSRIKKRHPVLTAKFIFDDHIRCMAAKQRLTKGRQTARGLKLQAICSALGVPRIDPATMTSSPRMNPFRIVKGCAPGSVRKTVSTSSSSSQGRPGHYSANLRSASRNAGMIPDDPTQPSSSSERRS | not soluble
8 | MFRVQTLNQIAEKGLQVFTEERYEVGDRINHPDGILLRSYSLHQEEFSKDLKAIARAGAGVNNIPVERCTEKGIVVFNTPGANANAVKELIIASLIMSSRNIINGVSWTKNLEGEEVPQLVESGKKQFVGSEIAGKRLGVIGLGAIGALVANDALALGMDVIGYDPYISVETAWRLSTHVQRAFSLDEIFATCDYITLHIPLTNQTKGIIGEHAVEKMKRGMRLFNFSRGELVDEKVLQKALEEDIITHYVTDFPNENVIKMKNVTATPHLGASTSESEENCAVMAARQLREYLETGNIRNSVNYPNVELPYIGKKRITIMHQNVPNMVGQITGCLAEHHINIADMTNRSKHSWAYTMIDIDNGIDDIIKENIVENISKITGVVAVRMIV | not soluble
9 | MFSAGHKIKGTVVLMPKNELEVNPDGSAVDNLNAFLGRSVSLQLISATKADAHGKGKVGKDTFLEGINTSLPTLGAGESAFNIHFEWDGSMGIPGAFYIKNYMQVEFFLKSLTLEAISNQGTIRFVCNSWVYNTKLYKSVRIFFANHTYVPSETPAPLVSYREEELKSLRGNGTGERKEYDRIYDYDVYNDLGNPDKSEKLARPVLGGSSTFPYPRRGRTGRGPTVTDPNTEKQGEVFYVPRDENLGHLKSKDALEIGTKSLSQIVQPAFESAFDLKSTPIEFHSFQDVHDLYEGGIKLPRDVISTIIPLPVIKELYRTDGQHILKFPQPHVVQVSQSAWMTDEEFAREMIAGVNPCVIRGLEEFPPKSNLDPAIYGDQSSKITADSLDLDGYTMDEALGSRRLFMLDYHDIFMPYVRQINQLNSAKTYATRTILFLREDGTLKPVAIELSLPHSAGDLSAAVSQVVLPAKEGVESTIWLLAKAYVIVNDSCYHQLMSHWLNTHAAMEPFVIATHRHLSVLHPIYKLLTPHYRNNMNINALARQSLINANGIIETTFLPSKYSVEMSSAVYKNWVFTDQALPADLIKRGVAIKDPSTPHGVRLLIEDYPYAADGLEIWAAIKTWVQEYVPLYYARDDDVKNDSELQHWWKEAVEKGHGDLKDKPWWPKLQTLEDLVEVCLIIIWIASALHAAVNFGEYPYGGLIMNRPTASRRLLPEKGTPEYEEMINNHEKAYLRTITSKLPTLISLSVIEILSTHASDEVYLGQRDNPHWTSDSKALQAFQKFGNKLKEIEEKLVRRNNDPSLQGNRLGPVQLPYTLLYPSSEEGLTFRGIPNSISI | soluble
10 | MFSGFSSFGGGNGFVNMPQTFEEFFRCYPIAMMNDRIRKDDANFGGKIFLPPSALSKLSMLNIRYPMLFKLTANETGRVTHGGVLEFIAEEGRVYLPQWMMETLGIQPGSLLQISSTDVPLGQFVKLEPQSVDFLDISDPKAVLENVLRNFSTLTVDDVIEISYNGKTFKIKILEVKPESSSKSICVIETDLVTDFAPPVGYVEPDYKALKAQQDKEKKNSFGKGQVLDPSVLGQGSMSTRIDYAGIANSSRNKLSKFVGQGQNISGKAPKAEPKQDIKDMKITFDGEPAKLDLPEGQLFFGFPMVLPKEDEESAAGSKSSEQNFQGQGISLRKSNKRKTKSDHDSSKSKAPKSPEVIEID | soluble
11 | MFTCKVNEHITIRLLEPKDAERLAELIIQNQQRLGKWLFFAENPSSADTYRETIIPDWRRQYADLNGIEAGLLYDGSLCGMISLHNLDQVNRKAEIGYWIAKEFEGKGIITAACRKLITYAFEELELNRVAICAAVGNEKSRAVPERIGFLEEGKARDGLYVNGMHHDLVYYSLLKREWEGEKLEHHHHHH | not soluble
12 | MFTDSTAKTVAPYTWKTDAGARATSTSDCIVLVLNGNNPIVADVQSCNADTTLPALGVMCGKRAWVY | soluble
13 | MFTQRKKWLSGVAAGLLMAASVSASAEEKILHIYNWSDYIAPDTLANFQKETGIKVVYDVFDSNEVLEGKLMAGSTGFDLVVPSASFLERQLSAGVFKPLDKSKLPNEKNLDPELLALVSKHDPDNKYAIPYLWATTGIGYNVEKVKAVLGEDAPVNSWDLVLKPENLEKLKSCGVSFLDAPSEIFATVLNYLGKDPNSTLTADYTGSATDLLLKLRPNIRYFHSSQYINDLANGDICVAVGWAGDIMQASNRAKEAKNGVNVAYSIPKEGALAFFDVFAMPTDAKNQDEAYQFLNYLMRPDVIANISNHVFYANANQAATPLVNAEVRDNPGIYPPADVRAKMFTLKVQDPKIDRVITRAWTKVKSGK | not soluble
14 | MFTQVKPYLSLPGFSCVLVNAGIVPPDLNQNFRVAFFNEKKSLNFYVLEKLFLNAEVKLLKPQKETEETFDFIISEIPFSHAFEEERKGLSNSIRNSLKEKGVLFIEYDSKPGSTPKEEFIRFIRLFLKKVESEQVKTDLEVILSRPSYFWARNNETRLYFLEKARRFNDDFVKREITNENYRIFSHDEVHELLKDCMLSFAGRANLEMNDPEIVLFPSHLATLARCGKNNLCKEAVIDFVLDTKQRRDIYAKFPEVDQEKAIESVADKFFLIPRQSPKNLRREVLLPGGHKLSLSEPVYDFFFVNSEEPRRLSEHPLYEKSKKTAWKAFYRVLSTGEFILCVNDDLLEDAKDELPESFELTPPNDEILKVSFENLEDTYLVSNATKGPAVHLNTLEVILLWFASEKGKTKAKEEAVKFLKSREEFIKLGTNIVKAREVKEEDINKTAEKLFKGRKAFNLNRLKIIRER | not soluble
15 | MFVFDATPLIYLAKAERLSLLSRLDASRLIPQRVYEEVVTVGLDAGYPDARRIEQSVEEGTFDVVSVPETTLFDRLSGNPNVSDADVAVLALAADHGATAVMDDAYGRDIAAVEAIETRGTAYLVLSLVRDGELEADDARETLEAMLDAGWHCSPSLYSKLLSKLEELAVGGADNRLEHHHHHH | not soluble
16 | MFVVKDCCQMIEVLFFIFKTNFKNCFPKMRKSKMYKSEPYSKKTIKIKKATDCGVITNIFSHFNEYVKQTIR | soluble
17 | MFYAHNVDFRVFADFLYLLRVRNSGNVVLILDNASFHKSSYVLATASRLNINLLFLPPYSLDLNRIEFGRI | soluble
18 | MGACWSDNPKKVLEMLSPMNIIAITRSIPENTPNSWFIYWLTKVEEGEVRENIYAISPTKLEILPDLVKKALKLGYDGVYIDGIEALVIENGFKSVAKFLLHIKDIVLAENKFIILTLDPRALKEEEIKIIEKEFKKLELSLEHHHHHH | not soluble

From the DeepSol protein solubility set
